Reference: the supplement of paper PMC7125110
± gives the standard error. Fewer inactive variants are shown than the library holds.

B1: glmS ribozyme (parent)
chain: AUAAAAGCGCCAGAACUACAGAAAUGUAGUUGACGAGGAGGAGGUUUAUCGAAUUUUCGGCGGAUGCCUCCAAA

Legend:
Conditions in all cases: with glucosamine-6-phosphate
[1] = variants of: B1; experiment: self-cleavage kobs at 40 uM GlcN6P; higher = faster cleavage; RNA array
Procedure, shortened: (§1)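 Using a hybridised Cy3 probe at 37 °C, barcoded ribozyme variants transcribed in situ by E. coli RNA polymerase on sequenced MiSeq chips were monitored across tiles imaged over ~14 h. The flow contained glucosamine-6-phosphate from 40 μM to 10 mM in HEPES/KCl/Mg(OAc)2 buffer. Signals were normalised to baseline and to non-cleaving reference variants before per-tile medians were fit to one- or two-exponential decays to yield kobs. Weighted Michaelis–Menten fits across concentrations gave kcat and KM.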

[2] = variants of: B1; experiment: self-cleavage kobs at 160 uM GlcN6P; higher = faster cleavage; RNA array
Procedure, shortened: as §1

[3] = variants of: B1; experiment: self-cleavage kobs at 640 uM GlcN6P; higher = faster cleavage; RNA array
Procedure, shortened: as §1

[4] = variants of: B1; experiment: self-cleavage kobs at 2500 uM GlcN6P; higher = faster cleavage; RNA array
Procedure, shortened: as §1

[5] = variants of: B1; experiment: self-cleavage kobs at 10000 uM GlcN6P; higher = faster cleavage; RNA array
Procedure, shortened: as §1

Variant | self-cleavage kobs at 40 uM GlcN6P [1] [s⁻¹] | self-cleavage kobs at 160 uM GlcN6P [2] [s⁻¹] | self-cleavage kobs at 640 uM GlcN6P [3] [s⁻¹] | self-cleavage kobs at 2500 uM GlcN6P [4] [s⁻¹] | self-cleavage kobs at 10000 uM GlcN6P [5] [s⁻¹]
G38U U46G G60C | < 1e-05 | < 1e-05 | < 1e-05 | < 1e-05 | 
G40C A64C | < 1e-05 | < 1e-05 |  |  | 
G40C U49A | < 1e-05 |  | < 1e-05 |  | < 1e-05
G40C U49C | < 1e-05 |  | < 1e-05 | < 1e-05 | < 1e-05
G38C U47A C70U | < 1e-05 |  |  |  | 
A36U C70G | 3.74e-05 ± 8.5e-06 | 2.91e-05 ± 1.4e-05 | 0.000403 ± 6.8e-05 |  | 
A39C A52U C71U | < 1e-05 |  |  |  | 
G38A G43U C67U | < 1e-05 |  |  |  | < 1e-05
A39U A42G U56G A64C | < 1e-05 |  |  |  | 4.69e-05 ± 1.8e-05
A39G C68G | 2.98e-05 ± 1.4e-05 | 6.43e-05 ± 1.3e-05 | 0.000165 ± 5e-05 | 0.000286 ± 4.7e-05 | 0.000116 ± 1.2e-05
A39G U55G C67A | 0.000369 ± 0.00011 |  |  |  | 0.0117 ± 0.003
A39G U54G | 0.00177 ± 0.00036 | 0.00227 ± 0.00056 | 0.00627 ± 0.0015 | 0.0305 ± 0.013 | 
G41C C50G | < 1e-05 | < 1e-05 | < 1e-05 | < 1e-05 | < 1e-05
G41C C50U | < 1e-05 |  | < 1e-05 | < 1e-05 | < 1e-05
G37C U65G U69G | < 1e-05 |  |  |  | < 1e-05
G37U A48U C68A | < 1e-05 |  |  |  | < 1e-05
G38A G60U U69G | < 1e-05 |  |  |  | < 1e-05
G37C U46A | < 1e-05 | < 1e-05 | < 1e-05 |  | < 1e-05
G41A G60U | < 1e-05 |  | < 1e-05 |  | < 1e-05
G38U U49A C58A | < 1e-05 |  |  |  | 
G40A G63A | < 1e-05 |  |  | < 1e-05 | < 1e-05
G37C A64C C68U | < 1e-05 |  |  | < 1e-05 | < 1e-05

Variant | self-cleavage kobs at 40 uM GlcN6P [1] [s⁻¹] | self-cleavage kobs at 160 uM GlcN6P [2] [s⁻¹] | self-cleavage kobs at 640 uM GlcN6P [3] [s⁻¹] | self-cleavage kobs at 2500 uM GlcN6P [4] [s⁻¹] | self-cleavage kobs at 10000 uM GlcN6P [5] [s⁻¹]
A39G A53C | 0.000254 ± 5.4e-05 | 0.000658 ± 0.00016 | 0.00303 ± 0.00075 | 0.0068 ± 0.0017 | 0.0216 ± 0.0083
G40A C67A | < 1e-05 |  | 0.000183 ± 5.8e-05 | 0.000262 ± 0.00011 | 
G37U G40U C67G | < 1e-05 |  | < 1e-05 | < 1e-05 | 
G40A A48C U57A C61G | < 1e-05 |  |  | < 1e-05 | 
G40A G60A | < 1e-05 | < 1e-05 | < 1e-05 |  | 
A39C A42U C67G | < 1e-05 |  |  | < 1e-05 | 
G37C A64U | < 1e-05 | < 1e-05 | < 1e-05 | < 1e-05 | < 1e-05
G40C G43U C70A | < 1e-05 |  |  |  | < 1e-05
G40U C61A G63C | < 1e-05 | < 1e-05 |  | < 1e-05 | 
G38U G59A C68G | 6.06e-05 ± 2.6e-05 |  |  |  | 4.84e-05 ± 1.9e-05
G38U C61U U69C C71G | 6.15e-05 ± 2.4e-05 |  |  |  | 4.2e-05 ± 1.5e-05
G37C U55C | < 1e-05 |  |  |  | 5.46e-05 ± 9.7e-06
G41U C68A | < 1e-05 | < 1e-05 | < 1e-05 | < 1e-05 | < 1e-05
G40C G41A C70U | 8.35e-05 ± 2.8e-05 |  |  | 0.000861 ± 0.00023 | 
A39G G60U | < 1e-05 | < 1e-05 | < 1e-05 |  | 
G40U U56A | 6.75e-05 ± 1.3e-05 | 0.000124 ± 3.2e-05 | 0.000381 ± 4.4e-05 | 0.00116 ± 0.00022 | 0.00344 ± 0.00064
G41C U69A | < 1e-05 | < 1e-05 | < 1e-05 |  | 
G40U G44C | < 1e-05 | < 1e-05 | < 1e-05 |  | 
G41U A42U C50G | < 1e-05 |  | < 1e-05 |  | 
G37U C58U G63A | < 1e-05 |  |  |  | 
G41A C67G C70U | 4.65e-05 ± 2e-05 | 0.000107 ± 3.4e-05 | 0.000188 ± 5.7e-05 | 0.000826 ± 0.00023 | 0.00166 ± 0.00038
G41C C67U | < 1e-05 | < 1e-05 | < 1e-05 | < 1e-05 | < 1e-05
